Laboratory results as given in patent publication US20120316071A1 (published 2012).

Tests used:
[1] = target: T1, rHuman ErbB2/Fc Chimera, CF (R&D Systems Cat#1129-ER) (human, UniProt P04626 23-652); test: ECL Multispot (MSD) assay; antigen spotted on plate, Fab in solution;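 also: fab bound 1 h at 20 °C, detected by TAG-labelled antibody electrochemiluminescence, signal relative to each well's blank, ratio of 4 or more marks a hit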
T1 construct: Bought reagent; also called human epidermal growth factor 2 receptor

[2] = target: T2, rHuman EGF R/Fc Chimera, CF (R&D Systems Cat#344-ER) (human, UniProt P00533 25-645); test: as above
T2 construct: Bought reagent; also called epidermal growth factor receptor

[3] = target: T3, rHuman IGF-1 sR, CF (R&D Systems Cat#391-GR) (human, UniProt P08069 31-932); test: as above
T3 construct: Bought soluble receptor; the column head 'IGF-1' means IGF-1 sR; also called insulin-like growth factor-1 soluble receptor

[4] = target: T4, rHuman P-Cadherin/Fc Chimera, CF (R&D Systems Cat#861-PC) (human, UniProt P22223 108-654); test: as above
T4 construct: Bought reagent

[5] = target: T5, rHuman CD44/Fc Chimera, CF (R&D Systems Cat#3660-CD) (human, UniProt P16070 21-220); test: as above
T5 construct: Bought reagent

[6] = target: T6, rHuman Notch-1/Fc Chimera, CF (R&D Systems Cat#3647-TK) (human, UniProt P46531 19-526); test: as above
T6 construct: Bought reagent

[7] = target: T7, rHuman HGF R/c-MET/Fc Chimera, CF (R&D Systems Cat#358-MT/CF) (human, UniProt P08581 25-932); test: as above
T7 construct: Bought reagent; also called HGF R/Fc; hepatocyte growth factor receptor
T7 sequence (P08581 25-932, change not shown): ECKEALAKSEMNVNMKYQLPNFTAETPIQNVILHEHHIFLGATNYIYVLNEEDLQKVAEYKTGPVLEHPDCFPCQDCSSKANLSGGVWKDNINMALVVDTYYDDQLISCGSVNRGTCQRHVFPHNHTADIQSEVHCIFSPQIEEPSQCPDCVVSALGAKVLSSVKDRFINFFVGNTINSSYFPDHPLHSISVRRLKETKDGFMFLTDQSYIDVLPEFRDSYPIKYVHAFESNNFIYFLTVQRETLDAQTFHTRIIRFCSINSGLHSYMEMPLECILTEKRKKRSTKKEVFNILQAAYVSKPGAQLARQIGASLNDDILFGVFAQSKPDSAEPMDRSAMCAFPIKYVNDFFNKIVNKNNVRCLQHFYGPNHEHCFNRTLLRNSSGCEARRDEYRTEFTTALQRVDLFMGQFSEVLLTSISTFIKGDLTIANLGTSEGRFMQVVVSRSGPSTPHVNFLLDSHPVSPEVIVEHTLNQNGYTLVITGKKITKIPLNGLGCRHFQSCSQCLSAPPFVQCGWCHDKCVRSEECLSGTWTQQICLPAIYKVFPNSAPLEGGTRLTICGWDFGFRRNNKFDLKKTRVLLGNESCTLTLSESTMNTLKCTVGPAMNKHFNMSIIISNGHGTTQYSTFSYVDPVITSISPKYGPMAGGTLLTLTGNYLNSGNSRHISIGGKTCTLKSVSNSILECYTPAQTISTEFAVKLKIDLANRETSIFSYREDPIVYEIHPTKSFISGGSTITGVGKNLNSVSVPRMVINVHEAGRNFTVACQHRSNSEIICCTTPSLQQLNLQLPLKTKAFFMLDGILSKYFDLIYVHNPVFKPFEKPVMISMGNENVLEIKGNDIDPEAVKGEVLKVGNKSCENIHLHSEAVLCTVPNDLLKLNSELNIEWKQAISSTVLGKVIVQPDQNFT

[8] = target: T8, rHuman Erythropoietin R/Fc Chimera, CF (R&D Systems Cat#963-ER) (human, UniProt P19235 25-250); test: as above
T8 construct: Bought reagent; also called EPO R; Epo R/Fc
T8 sequence (looked up): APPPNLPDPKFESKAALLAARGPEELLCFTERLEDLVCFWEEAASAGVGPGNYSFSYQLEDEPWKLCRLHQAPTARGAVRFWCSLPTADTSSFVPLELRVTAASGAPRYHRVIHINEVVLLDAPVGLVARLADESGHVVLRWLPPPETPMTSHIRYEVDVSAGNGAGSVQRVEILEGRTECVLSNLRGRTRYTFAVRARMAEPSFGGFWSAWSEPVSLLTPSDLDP

[9] = target: T9, Recombinant Human DLL4 (delta-like protein 4) (human, UniProt Q9NR61 27-524); test: 96-well plate ECL (MSD) assay, DLL4 immobilised, Fab at 10 nM
T9 construct: also called rHuman DLL4; Delta-like 4

[10] = target: T9, Recombinant Human DLL4 (delta-like …); test: ELISA, DLL4 coated on the plate, Fab at 100 nM, absorbance at 450 nm
[11] = target: T10, Recombinant Human DLL4 (delta-like protein 4) (human, UniProt Q9NR61 27-524); test: ELISA, DLL4-coated plate, Fab in solution
T10 construct: Bought recombinant human DLL4 (R&D Systems Cat#1506-D4/CF); also called rHuman DLL4; Delta-like 4

[12] = target: T10, Recombinant Human DLL4 (delta-like …); test: ECL (MSD) binding assay, DLL4 on plate, Fab in solution

B1: Fab VH1-46_IGHD6-6*01_IGHJ1*01 S102A/S103P/S104F (APF) & L6_IGKJ1*01 R24G/Q27L (Fab, V domains shown)
VH: QVQLVQSGAEVKKPGASVKVSCKASGYTFTSYYMHWVRQAPGQGLEWMGIINPSGGSTSYAQKFQGRVTMTRDTSTSTVYMELSSLRSEDTAVYYCAREEYAPFSAEYFQHWGQGTLVTVSS
VL: EIVLTQSPATLSLSPGERATLSCGASLSVSSYLAWYQQKPGQAPRLLIYDASNRATGIPARFSGSGSGTDFTLTISSLEPEDFAVYYCQQRSNWPPWTFGQGTKVEIKR
notes: Double mutant that arose inadvertently in the PCR; Fab format as for the parent (CH1 with His6/Flag tags, kappa CL); also called APF / R24G/Q27L
B1 gave an ECL signal [1] of 225, an ECL signal [2] of 252 and an ECL signal [3] of 49. It also gave an ECL signal [4] of 236, an ECL signal [5] of 119 and an ECL signal [6] of 177. The ECL signal [7] was 185 and the ECL signal [8] was 191.

B2: Fab VH1-46_IGHD6-6*01_IGHJ1*01 S102A/S103P/S104F (APF) & L6_IGKJ1*01 Y32V (Fab, V domains shown)
VH: QVQLVQSGAEVKKPGASVKVSCKASGYTFTSYYMHWVRQAPGQGLEWMGIINPSGGSTSYAQKFQGRVTMTRDTSTSTVYMELSSLRSEDTAVYYCAREEYAPFSAEYFQHWGQGTLVTVSS
VL: EIVLTQSPATLSLSPGERATLSCRASQSVSSVLAWYQQKPGQAPRLLIYDASNRATGIPARFSGSGSGTDFTLTISSLEPEDFAVYYCQQRSNWPPWTFGQGTKVEIKR
notes: Fab format as for the parent (CH1 with His6/Flag tags, kappa CL); also called APF / Y32V
B2 showed an ECL signal [1] of 156, an ECL signal [2] of 57 and an ECL signal [3] of 151. For the same binder, the ECL signal [4] was 186, the ECL signal [5] was 120 and the ECL signal [6] was 56. The ECL signal [7] was 283 and the ECL signal [8] was 144.

B3: Fab VH1-46_IGHD6-6*01_IGHJ1*01 S102A/S103P/S104F/H111F & L6_IGKJ1*01 S28N/S30D/S31H (Fab, V domains shown)
VH: QVQLVQSGAEVKKPGASVKVSCKASGYTFTSYYMHWVRQAPGQGLEWMGIINPSGGSTSYAQKFQGRVTMTRDTSTSTVYMELSSLRSEDTAVYYCAREEYAPFSAEYFQFWGQGTLVTVSS
VL: EIVLTQSPATLSLSPGERATLSCRASQNVDHYLAWYQQKPGQAPRLLIYDASNRATGIPARFSGSGSGTDFTLTISSLEPEDFAVYYCQQRSNWPPWTFGQGTKVEIKR
notes: Tested as a Fab expressed in E. coli; also called H:APFF & L:NDH; APFF-NDH
For B3, the “ECL Signal [10 nM Fab]” value [9] was 49000 and the “ELISA Signal [100 nM Fab]” value [10] was 0.08.

B4: Fab VH1-46_IGHD6-6*01_IGHJ1*01 S102A/S103P/S104F/H111F/G56A & L6_IGKJ1*01 S28N/S30D/S31H (Fab, V domains shown)
VH: QVQLVQSGAEVKKPGASVKVSCKASGYTFTSYYMHWVRQAPGQGLEWMGIINPSGASTSYAQKFQGRVTMTRDTSTSTVYMELSSLRSEDTAVYYCAREEYAPFSAEYFQFWGQGTLVTVSS
VL: EIVLTQSPATLSLSPGERATLSCRASQNVDHYLAWYQQKPGQAPRLLIYDASNRATGIPARFSGSGSGTDFTLTISSLEPEDFAVYYCQQRSNWPPWTFGQGTKVEIKR
notes: also called H:APFF G56A & L:NDH
With B4 the “ECL Signal [10 nM Fab]” value [9] was 71600 and the “ELISA Signal [100 nM Fab]” value [10] was 0.2.

B5: Fab VH1-46_IGHD6-6*01_IGHJ1*01 S102A/S103P/S104F/H111F/S54A & L6_IGKJ1*01 S28N/S30D/S31H (Fab, V domains shown)
VH: QVQLVQSGAEVKKPGASVKVSCKASGYTFTSYYMHWVRQAPGQGLEWMGIINPAGGSTSYAQKFQGRVTMTRDTSTSTVYMELSSLRSEDTAVYYCAREEYAPFSAEYFQFWGQGTLVTVSS
VL: EIVLTQSPATLSLSPGERATLSCRASQNVDHYLAWYQQKPGQAPRLLIYDASNRATGIPARFSGSGSGTDFTLTISSLEPEDFAVYYCQQRSNWPPWTFGQGTKVEIKR
notes: also called H:APFF S54A & L:NDH
B5 was tested, and the “ECL Signal [10 nM Fab]” value [9] was 46700 and the “ELISA Signal [100 nM Fab]” value [10] was 0.08.

B6: Fab VH5-51_IGHD5-18*01>3_IGHJ4*01 G100K/G104T G24L & V3-4_IGLJ1*01 (Fab, V domains shown)
VH: EVQLVQSGAEVKKPGESLKISCKLSGYSFTSYWIGWVRQMPGKGLEWMGIIYPGDSDTRYSPSFQGQVTISADKSISTAYLQWSSLKASDTAMYYCARRKYSYTYDYFDYWGQGTLVTVSS
VL: QTVVTQEPSFSVSPGGTVTLTCGLSSGSVSTSYYPSWYQQTPGQAPRTLIYSTNTRSSGVPDRFSGSILGNKAALTITGAQADDESDYYCVLYMGSGISYVFGTGTKVTVL
notes: Fab made in E. coli; also called KT G24L
In the case of B6, the “ELISA (Signal-Noise)” value [11] is reported as 0.09 and the “ECL signal” value [12] is reported as 19600.
